B1: CPEB3 Ribozyme (parent)
chain: UAACAGGGGGCCACAGCAGAAGCGUUCACGUCGCAGCCCCUGUCAGAUUCUGGUGAAUCUGCGAAUUCUGCUGUAUAUCUC

Variants of: B1
Assay: self-cleavage, relative activity (ratio to wild type); higher = more cleavage; in vitro, sequencing
How it was run: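 Libraries of CPEB3 self-cleaving ribozyme mutants came from rounds of error-prone PCR and carried barcodes, which DNA sequencing matched to variants. In vitro transcription used T7 RNA polymerase at 37°C for 5 hours, with a further 15 min in DNase I before EDTA stopped the reaction; the ribozymes cleaved during both steps. The RNA was reverse transcribed with template switching and sequenced on Illumina. Relative activity is the cleaved/total read fraction of a variant divided by that of the unmutated ribozyme, averaged over three batches with at least 5 reads.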

Variant	self-cleavage
UAACAGGGGGCCACAGCAGAAGCGUUCACGUCGCAGCCCCUGUGAGAUUCUGGUGAAUCUGCGAAUUCUGCUGUAUAUCCC [C44G U80C]	0.78
UAACAGGGGGCCACAGCAGAAGCGUUCACGUCGCAGCCCCUGUGAGAUUCUGGUGAAUCUGCGAAUUCUGCUGUAUAUCAC [C44G U80A]	0.52
UAACAGGGGGCCACAGCAGAAGCGUUCACGUCGCAGCCCCUGUUAGAUUCUGGUGAAUCUGCGAAUUCUGCCGUAUAUCUC [C44U U72C]	0.19
UAACAGGGGGCCACAGCAGAAGCGUUCACGUCGCAGCCCCUGUUAGAUUCUGGUGAAUCUGCGAAUUCUGCAGUAUAUCUC [C44U U72A]	0.14
UAACAGGGGGCCACAGCAGAAGCGUUCACGUCGCAGCCCCUGUUAGGUUCUGGUGAAUCUGCGAAUUCUGCUGUAUAUCUC [C44U A47G]	0.35
UAACAGGGGGCCACAGCAGAAGCGUUCACGUCGCAGCCCCUGUCCGAUUCUGGUGAAUCUGCGAGUUCUGCUGUAUAUCUC [A45C A65G]	0.42
UAACAGGGGGCCACAGCAGAAGCGUUCACGUCGCAGCCCCUGUCCGAUUCUGGUGAAUCUGCGAUUUCUGCUGUAUAUCUC [A45C A65U]	0.12
UAACAGGGGGCCACAGCAGAAGCGUUCACGUCGCAGCCCCUGUUAGAUUCUGGUGAAUCUGCGAAUUCUGCUGUUUAUCUC [C44U A75U]	0.31
UAACAGGGGGCCACAGCAGAAGCGUUCACGUCGCAGCCCCUGUGAGAUUCUGGUGAAUCUGCGAAUUCUGCUGUAUACCUC [C44G U78C]	0.44
UAACAGGGGGCCACAGCAGAAGCGUUCACGUCGCAGCCCCUGUUAGAUUCUGGUGAAUCUGCGAAUUCUGCUGUAUAUUUC [C44U C79U]	0.16
UAACAGGGGGCCACAGCAGAAGCGUUCACGUCGCAGCCCCUGUGAGAUUCUGGUGAAUCCGCGAAUUCUGCUGUAUAUCUC [C44G U60C]	0.38
UAACAGGGGGCCACAGCAGAAGCGUUCACGUCGCAGCCCCUGUCCGAUUCUGGUGAAUCUGCGAAUUCUGCUGUAUAUCUC [A45C]	0.38
UAACAGGGGGCCACAGCAGAAGCGUUCACGUCGCAGCCCCUGUUAGAUUCUGGUGAAUCUGCGAAUUCUGCUGUAUAGCUC [C44U U78G]	0.12
UAACAGGGGGCCACAGCAGAAGCGUUCACGUCGCAGCCCCUGUUAGAUUCUGGUGAAUCUGCGAAUUCUGCUGUAUACCUC [C44U U78C]	0.35
UAACAGGGGGCCACAGCAGAAGCGUUCACGUCGCAGCCCCUGUUAGAUUCUGGUGAAUCUGCGAAUUCUGCUGUAUAACUC [C44U U78A]	0.3
UAACAGGGGGCCACAGCAGAAGCGUUCACGUCGCAGCCCCUGUUGGAUUCUGGUGAAUCUGCGAAUUCUGCUGUAUAUCUC [C44U A45G]	0.41
UAACAGGGGGCCACAGCAGAAGCGUUCACGUCGCAGCCCCUGUUCGAUUCUGGUGAAUCUGCGAAUUCUGCUGUAUAUCUC [C44U A45C]	0.46
UAACAGGGGGCCACAGCAGAAGCGUUCACGUCGCAGCCCCUGUUAGAUUCUGGUGAAUCUGCGAAUUCUGCUGUAUAUCCC [C44U U80C]	0.29
UAACAGGGGGCCACAGCAGAAGCGUUCACGUCGCAGCCCCUGUUAGAUUCUGGUGAAUCUGCGAAUUCUGCUGUAUAUCAC [C44U U80A]	0.46
UAACAGGGGGCCACAGCAGAAGCGUUCACGUCGCAGCCCCUGUUAGACUCUGGUGAAUCUGCGAAUUCUGCUGUAUAUCUC [C44U U48C]	0.44
UAACAGGGGGCCACAGCAGAAGCGUUCACGUCGCAGCCCCUGUCCGAUUCUGGUGAGUCUGCGAAUUCUGCUGUAUAUCUC [A45C A57G]	0.26
UAACAGGGGGCCACAGCAGAAGCGUUCACGUCGCAGCCCCUGUCCGAUUCUGGUGAAUCUGCGAAUUCUGCUGUAUUUCUC [A45C A77U]	0.39
UAACAGGGGGCCACAGCAGAAGCGUUCACGUCGCAGCCCCUGUCCGAUUCUGGUGAAUCUGCGAAUUCUGCUGUAUGUCUC [A45C A77G]	0.25

Variant	self-cleavage
UAACAGGGGGCCACAGCAGAAGCGUUCACGUCGCAGCCCCUGUCCGGUUCUGGUGAAUCUGCGAAUUCUGCUGUAUAUCUC [A45C A47G]	0.17
UAACAGGGGGCCACAGCAGAAGCGUUCACGUCGCAGCCCCUGUUAGAUUCUGGUGGAUCUGCGAAUUCUGCUGUAUAUCUC [C44U A56G]	0.18
UAACAGGGGGCCACAGCAGAAGCGUUCACGUCGCAGCCCCUGUGAGAUUCUGGUGAAUCUGCGAAUUCUGCGGUAUAUCUC [C44G U72G]	0.2
UAACAGGGGGCCACAGCAGAAGCGUUCACGUCGCAGCCCCUGUGAGAUUCUGGUGAAUCUGCGAAUUCUGCCGUAUAUCUC [C44G U72C]	0.54
UAACAGGGGGCCACAGCAGAAGCGUUCACGUCGCAGCCCCUGUGAGAUUCUGGUGAAUCUGCGAAUCCUGCUGUAUAUCUC [C44G U67C]	0.18
UAACAGGGGGCCACAGCAGAAGCGUUCACGUCGCAGCCCCUGUUAGAUUCUGGUGAAUCUGAGAAUUCUGCUGUAUAUCUC [C44U C62A]	0.14
UAACAGGGGGCCACAGCAGAAGCGUUCACGUCGCAGCCCCUGUGAGAUUCUGGUGAAUCUGCGAAUUCUGCUGCAUAUCUC [C44G U74C]	1.02
UAACAGGGGGCCACAGCAGAAGCGUUCACGUCGCAGCCCCUGUGAGAUUCUGGUGAAUCUGCGAAUUCUGCUGAAUAUCUC [C44G U74A]	1.18
UAACAGGGGGCCACAGCAGAAGCGUUCACGUCGCAGCCCCUGUUAGAUUCUGGUGAAUCUCCGAAUUCUGCUGUAUAUCUC [C44U G61C]	0.2
UAACAGGGGGCCACAGCAGAAGCGUUCACGUCGCAGCCCCUGUUAGAUUCAGGUGAAUCUGCGAAUUCUGCUGUAUAUCUC [C44U U51A]	0.35
UAACAGGGGGCCACAGCAGAAGCGUUCACGUCGCAGCCCCUGUUAGAUUCCGGUGAAUCUGCGAAUUCUGCUGUAUAUCUC [C44U U51C]	0.1
UAACAGGGGGCCACAGCAGAAGCGUUCACGUCGCAGCCCCUGUUAGAUUCUGGUGAAUCUGCGAAUUCAGCUGUAUAUCUC [C44U U69A]	0.13
UAACAGGGGGCCACAGCAGAAGCGUUCACGUCGCAGCCCCUGUUAGAUUCUGGUGAAUCUGCGAAUUCCGCUGUAUAUCUC [C44U U69C]	0.17
UAACAGGGGGCCACAGCAGAAGCGUUCACGUCGCAGCCCCUGUUAGAUUCUGGUGAAUCUGCGUAUUCUGCUGUAUAUCUC [C44U A64U]	0.18
UAACAGGGGGCCACAGCAGAAGCGUUCACGUCGCAGCCCCUGUUAGAUUCUGGUGAAUCUGCGGAUUCUGCUGUAUAUCUC [C44U A64G]	0.21
UAACAGGGGGCCACAGCAGAAGCGUUCACGUCGCAGCCCCUGUUAGAUUCUGGUGAAUCUGCGAAUUCUGCUGUACAUCUC [C44U U76C]	0.25
UAACAGGGGGCCACAGCAGAAGCGUUCACGUCGCAGCCCCUGUUAGAUUCUGGUGAAUCUGCGAAUUCUGCUGUAAAUCUC [C44U U76A]	0.14
UAACAGGGGGCCACAGCAGAAGCGUUCACGUCGCAGCCCCUGUUAGAUUCUGGUGAACCUGCGAAUUCUGCUGUAUAUCUC [C44U U58C]	0.28
UAACAGGGGGCCACAGCAGAAGCGUUCACGUCGCAGCCCCUGUUAGAUUCUUGUGAAUCUGCGAAUUCUGCUGUAUAUCUC [C44U G52U]	0.46
UAACAGGGGGCCACAGCAGAAGCGUUCACGUCGCAGCCCCUGUCCGAUUCUGGUGAAUUUGCGAAUUCUGCUGUAUAUCUC [A45C C59U]	0.22
UAACAGGGGGCCACAGCAGAAGCGUUCACGUCGCAGCCCCUGUCCGAUUCUGGUGAAUCUGCGAAUUUUGCUGUAUAUCUC [A45C C68U]	0.28
UAACAGGGGGCCACAGCAGAAGCGUUCACGUCGCAGCCCCUGUCCGAUUCUGGUGAAUCUGCGAAUUCUGCUGUUUAUCUC [A45C A75U]	0.5
UAACAGGGGGCCACAGCAGAAGCGUUCACGUCGCAGCCCCUGUCCGAUUCUGGUGAAUCUGCGAAUUCUGCUGUGUAUCUC [A45C A75G]	0.14

Variant	self-cleavage
UAACAGGGGGCCACAGCAGAAGCGUUCACGUCGCAGCCCCUGUUAGAUUCUGGAGAAUCUGCGAAUUCUGCUGUAUAUCUC [C44U U54A]	0.36
UAACAGGGGGCCACAGCAGAAGCGUUCACGUCGCAGCCCCUGUUAGAUUCUGGCGAAUCUGCGAAUUCUGCUGUAUAUCUC [C44U U54C]	0.32
UAACAGGGGGCCACAGCAGAAGCGUUCACGUCGCAGCCCCUGUCCGAUUCUGGUGGAUCUGCGAAUUCUGCUGUAUAUCUC [A45C A56G]	0.26
UAACAGGGGGCCACAGCAGAAGCGUUCACGUCGCAGCCCCUGUCCGAUUCUGGUGUAUCUGCGAAUUCUGCUGUAUAUCUC [A45C A56U]	0.25
UAACAGGGGGCCACAGCAGAAGCGUUCACGUCGCAGCCCCUGUCCGAUUCUGGUGCAUCUGCGAAUUCUGCUGUAUAUCUC [A45C A56C]	0.42
UAACAGGGGGCCACAGCAGAAGCGUUCACGUCGCAGCCCCUGUUAGAUUCUGGUGAAUCUGCGAAUUCUGCUGCAUAUCUC [C44U U74C]	0.6
UAACAGGGGGCCACAGCAGAAGCGUUCACGUCGCAGCCCCUGUUAGAUUCUGGUGAAUCUGCGAAUUCUGCUGUAUUUCUC [C44U A77U]	0.22
UAACAGGGGGCCACAGCAGAAGCGUUCACGUCGCAGCCCCUGUUAGAUUCUGGUGAAUCCGCGAAUUCUGCUGUAUAUCUC [C44U U60C]	0.52
UAACAGGGGGCCACAGCAGAAGCGUUCACGUCGCAGCCCCUGUUAGAUUCUGGUGAAUCAGCGAAUUCUGCUGUAUAUCUC [C44U U60A]	0.14
UAACAGGGGGCCACAGCAGAAGCGUUCACGUCGCAGCCCCUGUUAGAUUCUGGUGAAUCUGCGAAUUCUGCUGUAUAUCUA [C44U C81A]	0.11
UAACAGGGGGCCACAGCAGAAGCGUUCACGUCGCAGCCCCUGUUAGAUUCUGGUGAAUCUGCGAGUUCUGCUGUAUAUCUC [C44U A65G]	0.13
UAACAGGGGGCCACAGCAGAAGCGUUCACGUCGCAGCCCCUGUCCGAUUCUGGUGAAUCUGUGAAUUCUGCUGUAUAUCUC [A45C C62U]	0.36
UAACAGGGGGCCACAGCAGAAGCGUUCACGUCGCAGCCCCUGUUAGAUUCUGGUAAAUCUGCGAAUUCUGCUGUAUAUCUC [C44U G55A]	0.07
UAACAGGGGGCCACAGCAGAAGCGUUCACGUCGCAGCCCCUGUCCGAUUCUGGUGAAUCUGCGUAUUCUGCUGUAUAUCUC [A45C A64U]	0
UAACAGGGGGCCACAGCAGAAGCGUUCACGUCGCAGCCCCUGUCCGAUUCUGGUGAAUCUGCGGAUUCUGCUGUAUAUCUC [A45C A64G]	0.32
UAACAGGGGGCCACAGCAGAAGCGUUCACGUCGCAGCCCCUGUUAGAUUCUGGUGAAUCUGCGAAUCCUGCUGUAUAUCUC [C44U U67C]	0.11
UAACAGGGGGCCACAGCAGAAGCGUUCACGUCGCAGCCCCUGUUAGAUUCUGGUGAAUCUGCGAAUACUGCUGUAUAUCUC [C44U U67A]	0.14
UAACAGGGGGCCACAGCAGAAGCGUUCACGUCGCAGCCCCUGUGAGAUUCUGGUGAAUCUGCGAAUUCUGCUGUACAUCUC [C44G U76C]	0.58
UAACAGGGGGCCACAGCAGAAGCGUUCACGUCGCAGCCCCUGUUAGAUUCUGGUGAAUCUGCGAAUUCUGCUGUAUAUCUC [C44U]	0.31
UAACAGGGGGCCACAGCAGAAGCGUUCACGUCGCAGCCCCUGUCCGAUUCUGGUGAAUCUGCGAAUUCUGCUGUAUAUCUU [A45C C81U]	0.45
UAACAGGGGGCCACAGCAGAAGCGUUCACGUCGCAGCCCCUGUUAGAUUCUGGUGAAUCUGCGAAAUCUGCUGUAUAUCUC [C44U U66A]	0.51
UAACAGGGGGCCACAGCAGAAGCGUUCACGUCGCAGCCCCUGUCCGAUUCUGGUCAAUCUGCGAAUUCUGCUGUAUAUCUC [A45C G55C]	0.11

Reference: the RNAGym collection of RNA variant scans (doi:10.1093/nar/gkz1192)
